# Laboratory results published in patent US20260256870A1, “SKIN COMPOSITION” (Eaderm Co., Ltd., priority 2019, published 2026).
# B1: Epidermal Growth Factor (EGF): growth factor (protein, UniProt P01133 23-1207, looked up)
# Pro-epidermal growth factor: PQHWSCPEGTLAGNGNSTCVGPAPFLIFSHGNSIFRIDTEGTNYEQLVVDAGVSVIMDFHYNEKRIYWVDLERQLLQRVFLNGSRQERVCNIEKNVSGMAINWINEEVIWSNQQEGIITVTDMKGNNSHILLSALKYPANVAVDPVERFIFWSSEVAGSLYRADLDGVGVKALLETSEKITAVSLDVLDKRLFWIQYNREGSNSLICSCDYDGGSVHISKHPTQHNLFAMSLFGDRIFYSTWKMKTIWIANKHTGKDMVRINLHSSFVPLGELKVVHPLAQPKAEDDTWEPEQKLCKLRKGNCSSTVCGQDLQSHLCMCAEGYALSRDRKYCEDVNECAFWNHGCTLGCKNTPGSYYCTCPVGFVLLPDGKRCHQLVSCPRNVSECSHDCVLTSEGPLCFCPEGSVLERDGKTCSGCSSPDNGGCSQLCVPLSPVSWECDCFPGYDLQLDEKSCAASGPQPFLLFANSQDIRHMHFDGTDYGTLLSQQMGMVYALDHDPVENKIYFAHTALKWIERANMDGSQRERLIEEGVDVPEGLAVDWIGRRFYWTDRGKSLIGRSDLNGKRSKIITKENISQPRGIAVHPMAKRLFWTDTGINPRIESSSLQGLGRLVIASSDLIWPSGITIDFLTDKLYWCDAKQSVIEMANLDGSKRRRLTQNDVGHPFAVAVFEDYVWFSDWAMPSVMRVNKRTGKDRVRLQGSMLKPSSLVVVHPLAKPGADPCLYQNGGCEHICKKRLGTAWCSCREGFMKASDGKTCLALDGHQLLAGGEVDLKNQVTPLDILSKTRVSEDNITESQHMLVAEIMVSDQDDCAPVGCSMYARCISEGEDATCQCLKGFAGDGKLCSDIDECEMGVPVCPPASSKCINTEGGYVCRCSEGYQGDGIHCLDIDECQLGEHSCGENASCTNTEGGYTCMCAGRLSEPGLICPDSTPPPHLREDDHHYSVRNSDSECPLSHDGYCLHDGVCMYIEALDKYACNCVVGYIGERCQYRDLKWWELRHAGHGQQQKVIVVAVCVVVLVMLLLLSLWGAHYYRTQKLLSKNPKNPYEESSRDVRSRRPADTEDGMSSCPQPWFVVIKEHQDLKNGGQPVAGEDGQAADGSMQPTSWRQEPQLCGMGTEQGCWIPVSSDKGSCPQVMERSFHMPSYGTQTLEGGVEKPHSLLSANPLWQQRALDPPHQMELTQ
# modifications: Pro-epidermal growth factor
# Tests used:
# [1] = tested on: COL17A1; test: COL17A1 expression in human epidermal keratinocytes by high content imaging (HCS); assay type: cell-based; conditions: Table 1; human epidermal keratinocytes, 48 hours after addition of reagents, fluorescence intensity per cell
# Description: The present inventors further searched for substances that induce or maintain the expression of COL17A1. Human epidermal keratinocytes were seeded in 384-well plates, cultured for 48 hours after addition of reagents, immunostained with an anti-COL17A1 antibody and a fluorescently labeled secondary antibody, and then the fluorescence intensity per cell was detected using a high content imaging system (HCS: High Content Screening). In addition to cell counting with DAPI, the expression level of COL17A1 was quantified.
# [2] = tested on: human epidermal keratinocytes; test: Colony formation assay using human epidermal keratinocytes; assay type: cell-based; conditions: Table 1
# Description: To test whether COL17A1-mediated SCD maintains clonal proliferation of epidermal stem cell clones, the present inventors used a colony formation assay, which is an in vitro assay said to be the gold standard for assessing the self-renewal ability of epidermal stem cells, including cells in the tail epidermis.
molecule,measurement,setting,value
B1,COL17A1 expression level (control ratio),[1],⊚ (one double circle (⊚) represents a 1.2-fold or greater increase)
same,Colony area (control ratio),[2],⊚⊚ (Two double circles (⊚⊚) in the control ratio of the colony number or colony area indicates an increase of 1.2-fold or more)
same,Colony number (control ratio),[2],⊚⊚ (Two double circles (⊚⊚) in the control ratio of the colony number or colony area indicates an increase of 1.2-fold or more)
